These results are taken from patent US20220267400.

Series [1] addresses T1, Construct B (m IL2-2x(SG4) - MMPcs1 - 2x (G4S) - IL2Ralpha - mIgG1 Fc).
T1 chain: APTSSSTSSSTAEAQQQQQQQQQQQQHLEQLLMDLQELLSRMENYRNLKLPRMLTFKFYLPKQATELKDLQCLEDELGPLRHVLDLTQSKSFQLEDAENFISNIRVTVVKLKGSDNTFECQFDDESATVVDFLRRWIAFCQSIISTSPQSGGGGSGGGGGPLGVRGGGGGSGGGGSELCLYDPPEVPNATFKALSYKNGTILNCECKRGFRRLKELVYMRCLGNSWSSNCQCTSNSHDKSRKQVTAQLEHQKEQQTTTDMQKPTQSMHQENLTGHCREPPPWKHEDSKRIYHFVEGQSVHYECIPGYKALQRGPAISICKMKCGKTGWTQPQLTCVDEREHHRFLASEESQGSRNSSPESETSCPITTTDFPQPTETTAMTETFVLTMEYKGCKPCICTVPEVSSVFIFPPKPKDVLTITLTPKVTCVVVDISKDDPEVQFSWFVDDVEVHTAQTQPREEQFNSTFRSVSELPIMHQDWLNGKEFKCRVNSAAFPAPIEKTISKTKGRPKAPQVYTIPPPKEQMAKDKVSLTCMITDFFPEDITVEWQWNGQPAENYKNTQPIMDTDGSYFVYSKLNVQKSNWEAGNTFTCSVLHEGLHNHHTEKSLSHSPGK

Series [2] concerns the target Construct E (Hu IL2(C125S)- 2x(SG4) - MMPcs1 - 2x(G4S) - IL2Ralpha - hu IgG1 Fc - 6xHIS).
The target of series [3] is T2, Construct A (mIL2- 2x(SG4) - MMPcs1 - 2x(G4S) - IL2Ralpha - 6His).
T2 chain: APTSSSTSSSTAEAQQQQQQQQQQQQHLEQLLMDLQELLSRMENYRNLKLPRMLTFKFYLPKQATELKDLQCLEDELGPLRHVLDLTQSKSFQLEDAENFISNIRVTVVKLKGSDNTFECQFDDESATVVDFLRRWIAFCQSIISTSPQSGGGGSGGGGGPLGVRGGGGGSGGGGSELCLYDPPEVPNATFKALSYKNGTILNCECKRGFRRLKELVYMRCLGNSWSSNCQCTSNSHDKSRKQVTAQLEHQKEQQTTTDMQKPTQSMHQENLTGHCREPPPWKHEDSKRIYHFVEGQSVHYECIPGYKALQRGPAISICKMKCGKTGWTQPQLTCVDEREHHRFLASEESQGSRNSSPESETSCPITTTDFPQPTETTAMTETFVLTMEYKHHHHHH

Sequence of Construct E (Hu IL2(C125S)- 2x(SG4) - MMPcs1 - 2x(G4S) - IL2Ralpha - hu IgG1 Fc - 6xHIS) (chain, as listed by the source C125S): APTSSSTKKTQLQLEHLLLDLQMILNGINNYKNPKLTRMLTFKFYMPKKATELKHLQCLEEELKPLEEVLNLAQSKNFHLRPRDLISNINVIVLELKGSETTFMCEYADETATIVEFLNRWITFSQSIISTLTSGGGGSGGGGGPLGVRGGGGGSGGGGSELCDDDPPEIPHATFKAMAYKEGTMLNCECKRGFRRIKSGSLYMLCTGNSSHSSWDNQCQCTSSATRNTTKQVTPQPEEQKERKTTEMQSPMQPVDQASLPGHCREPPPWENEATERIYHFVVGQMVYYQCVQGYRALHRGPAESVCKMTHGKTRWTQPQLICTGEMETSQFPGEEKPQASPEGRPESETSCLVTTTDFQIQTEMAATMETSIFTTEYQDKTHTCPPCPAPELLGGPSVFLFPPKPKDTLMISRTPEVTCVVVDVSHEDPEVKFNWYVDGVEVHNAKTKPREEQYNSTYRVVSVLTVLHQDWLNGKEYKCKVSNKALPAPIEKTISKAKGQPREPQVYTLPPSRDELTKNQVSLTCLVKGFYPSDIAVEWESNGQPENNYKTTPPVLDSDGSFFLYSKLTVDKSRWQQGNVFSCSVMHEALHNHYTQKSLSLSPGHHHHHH

B1: Recombinant MMP9 (R&D Systems), activated with p-aminophenylmercuric acetate (protein)
chain: FQTFKGLKWDHHNITYWIQNYSEDLPRDMIDDAFARAFAVWGEVAPLTFTRVYGPEADIVIQFGVAEHGDGYPFDGKDGLLAHAFPPGAGVQGDAHFDDDELWSLGKGVVIPTYYGNSNGAPCHFPFTFEGRSYSACTTDGRNDGTPWCSTTADYDKDGKFGFCPSERLYTEHGNGEGKPCVFPFIFEGRSYSACTTKGRSDGYRWCATTANYDQDKLYGFCPTRVDATVVGGNSAGELCVFPFVFLGKQYSSCTSDGRRDGRLWCATTSNFDTDKKWGFCPDQGYSLFLVAAHEFGHALGLDHSSVPEALMYPLYSYLEGFPLNKDDIDGIQYLYGRGSKPDPRPPATTTTEPQPTAPPTMCPTIPPTAYPTVGPTVGPTGAPSPGPTSSPSPGPTGAPSPGPTAPPTAGSSEASTESLSPADNPCNVDVFDAIAEIQGALHFFKDGWYWKFLNHRGSPLQGPFLTARTWPALPATLDSAFEDPQTKRVFFFSGRQMWVYTGKTVLGPRSLDKLGLGPEVTHVSGLLPRRLGKALLFSKGRVWRFDLKSQKVDPQSVIRVDKEFSGVPWNSHDIFQYQDKAYFCHGKFFWRVSFQNEVNKVDHEVNQVDDVGYVTYDLLQCP
On to B1, for which the “cleavage of the fusion protein, SDS-PAGE and Western blot” value in series [1], in series [2] and in series [3] was “essentially complete cleavage of the fusion proteins by MMP9 protease was seen after overnight incubation” throughout. Besides, the “cleavage of the fusion protein, Western blot” value was “Cleavage product was detectable at 1 hour, and the full-length cytokine prodrug gave only a faint band at the 20 hour +MMP time point” in series [1]; “Cleavage product was detectable at 1 hour, and the full-length cytokine prodrug gave essentially no band at the 22 hour +MMP time point” in series [2]; “Cleavage product was detectable at 1 hour, and the full-length cytokine prodrug was substantially undetectable at the overnight +MMP time point” in series [3].
